This assay concerns the target T1, CEP192-WT (residues 507-1065 of human CEP192, C-terminal V5 and 6XHis tags) (human, UniProt Q8TEP8 507-1065).
T1 sequence (looked up): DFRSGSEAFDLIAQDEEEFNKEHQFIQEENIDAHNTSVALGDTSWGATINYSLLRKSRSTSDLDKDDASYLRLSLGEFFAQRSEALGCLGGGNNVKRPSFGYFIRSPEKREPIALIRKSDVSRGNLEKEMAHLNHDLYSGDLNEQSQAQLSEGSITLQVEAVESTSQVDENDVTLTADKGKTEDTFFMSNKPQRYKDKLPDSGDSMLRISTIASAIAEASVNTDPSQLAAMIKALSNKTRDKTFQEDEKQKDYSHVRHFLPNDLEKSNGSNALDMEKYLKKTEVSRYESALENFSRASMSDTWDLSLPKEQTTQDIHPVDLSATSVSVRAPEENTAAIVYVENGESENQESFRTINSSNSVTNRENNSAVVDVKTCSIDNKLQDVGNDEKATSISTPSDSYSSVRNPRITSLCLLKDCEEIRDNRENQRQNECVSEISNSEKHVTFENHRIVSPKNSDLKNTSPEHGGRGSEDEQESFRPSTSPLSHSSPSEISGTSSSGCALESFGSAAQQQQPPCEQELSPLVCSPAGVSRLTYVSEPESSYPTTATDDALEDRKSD
As to the kind of experiment: pull-down.

B1: Human PP1β (type one protein phosphatase, purified) (enzyme, UniProt P62140 1-327, looked up)
chain: MADGELNVDSLITRLLEVRGCRPGKIVQMTEAEVRGLCIKSREIFLSQPILLELEAPLKICGDIHGQYTDLLRLFEYGGFPPEANYLFLGDYVDRGKQSLETICLLLAYKIKYPENFFLLRGNHECASINRIYGFYDECKRRFNIKLWKTFTDCFNCLPIAAIVDEKIFCCHGGLSPDLQSMEQIRRIMRPTDVPDTGLLCDLLWSDPDKDVQGWGENDRGVSFTFGADVVSKFLNRHDLDLICRAHQVVEDGYEFFAKRQLVTLFSAPNYCGEFDNAGGMMSVDETLMCSFQILKPSEKKAKYQYGGLNSGRPVTPPRTANPPKKR
B1: the binding result was “binds”.

The values are drawn from paper PMC7888556 (Biochemical and biophysical research communications, 2017).
